The experiment addresses purified recombinant histone H3 protein (Active Motif C110A), PARylated in vitro by PARP1 (UniProt P68431).

In article PMC5828221 one finds decrease in H3K27me3 ELISA after in vitro methylation by the EZH2/PRC2 complex of PARylated against unmodified recombinant histone H3 (PARP1 removed beforehand) data, which are given here for 1 substance.

With “human EZH2/EED/SUZ12/RbAp48/AEBP2 Complex (from UniProt Q15910 1-746; O75530 1-441; Q15022 1-739; Q09028 1-425; Q6ZN18 1-517)”, the decrease in H3K27me3 ELISA after in vitro methylation by the EZH2/PRC2 complex of PARylated against unmodified recombinant histone H3 (PARP1 removed beforehand) was 30%.
